These results are taken from patent publication US20220363770A1 (Amgen, published 2022).

T1: human PAC1 receptor (human, UniProt P41586 24-468)
T1 sequence: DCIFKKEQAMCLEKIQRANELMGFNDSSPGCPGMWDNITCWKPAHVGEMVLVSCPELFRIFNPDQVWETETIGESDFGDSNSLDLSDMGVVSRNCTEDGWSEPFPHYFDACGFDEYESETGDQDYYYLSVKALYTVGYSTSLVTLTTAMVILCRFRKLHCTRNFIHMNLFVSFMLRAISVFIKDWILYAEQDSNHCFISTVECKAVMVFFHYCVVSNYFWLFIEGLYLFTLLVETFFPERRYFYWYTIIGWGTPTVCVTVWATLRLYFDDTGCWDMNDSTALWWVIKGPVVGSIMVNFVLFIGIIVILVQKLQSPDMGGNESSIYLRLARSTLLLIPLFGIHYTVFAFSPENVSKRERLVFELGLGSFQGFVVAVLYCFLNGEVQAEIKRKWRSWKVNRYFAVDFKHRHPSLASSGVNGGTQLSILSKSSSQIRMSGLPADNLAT

B1: iPS:454741 (bispecific antibody, human IgG1, kappa, lambda, N297G)
light 1: QSVLTQPPSVSAAPGQKVTISCSGSYSNIGRYSVSWYQQLPGTAPKLLIYDNNKRPSGIPDRFSGSKSGTSATLGITGLQTGDEADYYCGTWDSRLSAVVFGGGTKLTVLGQPKAAPSVTLFPPSSEELQANKATLVCLISDFYPGAVTVAWKADSSPVKAGVETTTPSKQSNNKYAAKSYLSLTPEQWKSHRSYSCQVTHEGSTVEKTVAPTECS
heavy 1: QVQLVESGGGVVQPGRSLRLSCAASGFTFSSFGMHWVRQAPGKGLEWVAVISFDGSIKYSVDSVKGRFTISRDNSKNTLFLQMNSLRAEDTAVYYCARDRLNYYESSGYYHYKYYGMAVWGQGTTVTVSSASTKGPSVFPLAPSSKSTSGGTAALGCLVKDYFPEPVTVSWNSGALTSGVHTFPAVLQSSGLYSLESVVTVPSSSLGTQTYICNVNHKPSNTKVDKKVEPKSCDKTHTCPPCPAPELLGGPSVFLFPPKPKDTLMISRTPEVTCVVVDVSHEDPEVKFNWYVDGVEVHNAKTKPCEEQYGSTYRCVSVLTVLHQDWLNGKEYKCKVSNKALPAPIEKTISKAKGQPREPQVYTLPPSRKKMTKNQVSLTCLVKGFYPSDIAVEWESNGQPENNYKTTPPVLKSDGSFFLYSKLTVDKSRWQQGNVFSCSVMHEALHNHYTQKSLSLSPGK
light 2: EIVLTQSPATLSLSPGERATLSCRASKSVGQSLHWYQQKPGQAPRLLIKYASQSLSGIPARFSGSGSGTDFTLTISSLEPEDFAVYYCHQSSRLPFTFGPGTKVDIKRTVAAPSVFIFPPSDEQLKSGTASVVCLLNNFYPREAKVQWKVDNALQSGNSQESVTEQDSKDSTYSLESTLTLSKADYEKHKVYACEVTHQGLSSPVTKSFNRGEC
heavy 2: not shown
B2: iPS:454775 (bispecific antibody, human IgG1, kappa, lambda, N297G)
light 1: B1 light 1
heavy 1: B1 heavy 1
light 2: B1 light 2 with Q31W
heavy 2: not shown
B3: iPS:454745 (bispecific antibody, human IgG1, kappa, lambda, N297G)
light 1: B1 light 1
heavy 1: B1 heavy 1
light 2: B1 light 2 with S28A, Q31F, R93F
heavy 2: not shown
B4: iPS:454749 (bispecific antibody, human IgG1, kappa, lambda, N297G)
light 1: B1 light 1
heavy 1: B1 heavy 1
light 2: B1 light 2 with Q31R
heavy 2: not shown
B5: iPS:454743 (bispecific antibody, human IgG1, kappa, lambda, N297G)
light 1: B1 light 1
heavy 1: B1 heavy 1
light 2: B1 light 2
heavy 2: not shown
B6: iPS:454755 (bispecific antibody, human IgG1, kappa, lambda, N297G)
light 1: B1 light 1
heavy 1: B1 heavy 1
light 2: B1 light 2 with Q31R
heavy 2: not shown
B7: iPS:454757 (bispecific antibody, human IgG1, kappa, lambda, N297G)
light 1: B1 light 1
heavy 1: B1 heavy 1
light 2: B1 light 2 with Q31R
heavy 2: not shown
B8: iPS:454751 (bispecific antibody, human IgG1, kappa, lambda, N297G)
light 1: B1 light 1
heavy 1: B1 heavy 1
light 2: B1 light 2 with Q31R
heavy 2: not shown
B9: iPS:454763 (bispecific antibody, human IgG1, kappa, lambda, N297G)
light 1: B1 light 1
heavy 1: B1 heavy 1
light 2: B1 light 2 with K27Q, Q31R
heavy 2: not shown
B10: iPS:454773 (bispecific antibody, human IgG1, kappa, lambda, N297G)
light 1: B1 light 1
heavy 1: B1 heavy 1
light 2: B1 light 2 with S28A, Q31W
heavy 2: not shown
B11: iPS:454771 (bispecific antibody, human IgG1, kappa, lambda, N297G)
light 1: B1 light 1
heavy 1: B1 heavy 1
light 2: B1 light 2 with Q31R
heavy 2: not shown
B12: iPS:454765 (bispecific antibody, human IgG1, kappa, lambda, N297G)
light 1: B1 light 1
heavy 1: B1 heavy 1
light 2: B1 light 2 with K27Q, Q31R
heavy 2: not shown
B13: iPS:454783 (bispecific antibody, human IgG1, kappa, lambda, N297G)
light 1: B1 light 1
heavy 1: B1 heavy 1
light 2: B1 light 2 with Q31W
heavy 2: not shown
B14: iPS:454759 (bispecific antibody, human IgG1, kappa, lambda, N297G)
light 1: B1 light 1
heavy 1: B1 heavy 1
light 2: B1 light 2 with Q31R
heavy 2: not shown
B15: iPS:454753 (bispecific antibody, human IgG1, kappa, lambda, N297G)
light 1: B1 light 1
heavy 1: B1 heavy 1
light 2: B1 light 2 with Q31R
heavy 2: not shown
B16: iPS:454747 (bispecific antibody, human IgG1, kappa, lambda, N297G)
light 1: B1 light 1
heavy 1: B1 heavy 1
light 2: EIVLTQSPATLSLSPGERATLSCRASRAVSNLHWYQQKPGQAPRLLIKYASQSLSGIPARFSGSGSGTDFTLTISSLEPEDFAVYYCHQSSYLPFTFGPGTKVDIKRTVAAPSVFIFPPSDEQLKSGTASVVCLLNNFYPREAKVQWKVDNALQSGNSQESVTEQDSKDSTYSLESTLTLSKADYEKHKVYACEVTHQGLSSPVTKSFNRGEC
heavy 2: not shown
B17: iPS:454767 (bispecific antibody, human IgG1, kappa, lambda, N297G)
light 1: B1 light 1
heavy 1: B1 heavy 1
light 2: B1 light 2 with K27Q, Q31R
heavy 2: not shown
B18: iPS:454761 (bispecific antibody, human IgG1, kappa, lambda, N297G)
light 1: B1 light 1
heavy 1: B1 heavy 1
light 2: B1 light 2 with Q31R
heavy 2: not shown
B19: iPS:454769 (bispecific antibody, human IgG1, kappa, lambda, N297G)
light 1: B1 light 1
heavy 1: B1 heavy 1
light 2: B1 light 2 with Q31R
heavy 2: not shown

Numbering of substitutions follows the chain as printed.

Chain of human CGRP receptor (Q16602 23-461 limits assumed, chain 1 of 2): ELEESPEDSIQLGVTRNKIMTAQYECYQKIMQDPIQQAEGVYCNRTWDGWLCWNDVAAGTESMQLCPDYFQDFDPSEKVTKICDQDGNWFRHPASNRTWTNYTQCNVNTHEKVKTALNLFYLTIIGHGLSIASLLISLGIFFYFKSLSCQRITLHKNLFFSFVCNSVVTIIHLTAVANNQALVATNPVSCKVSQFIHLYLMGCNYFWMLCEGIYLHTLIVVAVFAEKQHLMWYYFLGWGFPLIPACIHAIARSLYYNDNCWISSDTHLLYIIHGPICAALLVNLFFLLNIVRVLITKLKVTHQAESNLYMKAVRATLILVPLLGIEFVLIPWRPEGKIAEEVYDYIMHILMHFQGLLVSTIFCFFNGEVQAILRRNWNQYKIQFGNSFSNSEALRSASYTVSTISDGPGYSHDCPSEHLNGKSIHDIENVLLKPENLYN
Chain of human CGRP receptor (O60894 27-148 limits assumed, chain 2 of 2): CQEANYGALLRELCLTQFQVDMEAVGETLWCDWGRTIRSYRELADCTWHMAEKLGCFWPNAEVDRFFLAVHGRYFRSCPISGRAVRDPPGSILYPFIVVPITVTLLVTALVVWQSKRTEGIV

The first assay addresses human CGRP receptor (human, UniProt Q16602 23-461; O60894 27-148). Put plainly: cell-based or functional assay.
As for B1, the “Fold-improvement over 4E4 Ab” value was 0.8 fold and the half-maximal inhibitory concentration (IC50) (as a rule, the concentration that inhibits the measured activity by half) stood at 0.64 nM.
Regarding B2, the “Fold-improvement over 4E4 Ab” value is 1.4 fold and the “IC50” value is 0.38 nM.
The corresponding values for B3 are 1.3 fold and 0.46 nM.
In the same order, the values of B4 are 1.4 fold and 0.41 nM.
In the same order, the values of B5 are 1.1 fold and 0.52 nM.
In the case of B6, the “Fold-improvement over 4E4 Ab” value was found to be 1.8 fold and half-maximal inhibition (IC50) was put at 0.27 nM.
B7: the “Fold-improvement over 4E4 Ab” value was 1.4 fold and inhibition was half-maximal at 0.43 nM (IC50).
For the molecule B8, the “Fold-improvement over 4E4 Ab” value was found to be 1.2 fold and half-maximal inhibition (IC50) was put at 0.43 nM.
As to B9, the “Fold-improvement over 4E4 Ab” value was determined as 1.5 fold and the “IC50” value is 0.32 nM.
In the same order, the values of B10 are 0.9 fold and 0.57 nM.
Regarding B11, the “Fold-improvement over 4E4 Ab” value stood at 1.4 fold and the “IC50” value stood at 0.37 nM.
In the same order, the values of B12 are 1.6 fold and 0.34 nM.
The corresponding values for B13 are 1.1 fold and 0.48 nM.
In the same order, the values of B14 are 1.5 fold and 0.39 nM.
As for B15, the “Fold-improvement over 4E4 Ab” value was 1.3 fold and half-maximal inhibition (IC50) was put at 0.37 nM.
The corresponding values for B16 are 1.2 fold and 0.49 nM.
Regarding B17, the “Fold-improvement over 4E4 Ab” value is 1.2 fold and the “IC50” value was 0.41 nM.
For B18, the “Fold-improvement over 4E4 Ab” value was determined as 1.4 fold and inhibition was half-maximal at 0.42 nM (IC50).
In the same order, the values of B19 are 1.7 fold and 0.32 nM.

In another assay the target is T1, human PAC1 receptor. Put plainly: cell-based or functional assay.
B1: the “Fold-improvement over 29G4v22 Ab” value turned out to be 4.2 fold and inhibition was half-maximal at 1.58 nM (IC50).
The corresponding values for B2 are 6.7 fold and 0.83 nM.
The corresponding values for B3 are 5.2 fold and 1.2 nM.
In the same order, the values of B4 are 7.5 fold and 0.83 nM.
For the molecule B5, the “Fold-improvement over 29G4v22 Ab” value is 3.8 fold and 1.66 nM corresponded to half-maximal inhibition (IC50).
For B6, the “Fold-improvement over 29G4v22 Ab” value worked out at 9.2 fold and the 50% inhibitory concentration (IC50) amounted to 0.69 nM.
Turning to B7, the “Fold-improvement over 29G4v22 Ab” value worked out at 9.2 fold and the “IC50” value worked out at 0.68 nM.
The corresponding values for B8 are 12.2 fold and 0.52 nM.
For the molecule B9, the “Fold-improvement over 29G4v22 Ab” value worked out at 8.5 fold and the concentration for half-maximal inhibition (IC50) was determined as 0.75 nM.
The corresponding values for B10 are 7.7 fold and 0.83 nM.
As to B11, the “Fold-improvement over 29G4v22 Ab” value turned out to be 7.6 fold and half-maximal inhibition (IC50) required 0.84 nM.
For the molecule B12, the “Fold-improvement over 29G4v22 Ab” value amounted to 7.8 fold and the half-maximal inhibitory concentration (IC50) stood at 0.71 nM.
The corresponding values for B13 are 9.1 fold and 0.62 nM.
For B14, the “Fold-improvement over 29G4v22 Ab” value stood at 8.5 fold and half-maximal inhibition (IC50) was put at 0.74 nM.
Consider B15, for which the “Fold-improvement over 29G4v22 Ab” value was determined as 10.4 fold and half-maximal inhibition (IC50) was put at 0.61 nM.
In the same order, the values of B16 are 2 fold and 3.09 nM.
The corresponding values for B17 are 9 fold and 0.71 nM.
In the same order, the values of B18 are 6.4 fold and 0.97 nM.
With B19, the “Fold-improvement over 29G4v22 Ab” value came out at 7.2 fold and the half-maximal inhibitory concentration (IC50) came out at 0.78 nM.
